Earlier results as cited in paper PMC10062658.

Target: PTH1R (Homo sapiens) (UniProt Q03431)
UniProt Q03431, sequence (Q03431 27-593): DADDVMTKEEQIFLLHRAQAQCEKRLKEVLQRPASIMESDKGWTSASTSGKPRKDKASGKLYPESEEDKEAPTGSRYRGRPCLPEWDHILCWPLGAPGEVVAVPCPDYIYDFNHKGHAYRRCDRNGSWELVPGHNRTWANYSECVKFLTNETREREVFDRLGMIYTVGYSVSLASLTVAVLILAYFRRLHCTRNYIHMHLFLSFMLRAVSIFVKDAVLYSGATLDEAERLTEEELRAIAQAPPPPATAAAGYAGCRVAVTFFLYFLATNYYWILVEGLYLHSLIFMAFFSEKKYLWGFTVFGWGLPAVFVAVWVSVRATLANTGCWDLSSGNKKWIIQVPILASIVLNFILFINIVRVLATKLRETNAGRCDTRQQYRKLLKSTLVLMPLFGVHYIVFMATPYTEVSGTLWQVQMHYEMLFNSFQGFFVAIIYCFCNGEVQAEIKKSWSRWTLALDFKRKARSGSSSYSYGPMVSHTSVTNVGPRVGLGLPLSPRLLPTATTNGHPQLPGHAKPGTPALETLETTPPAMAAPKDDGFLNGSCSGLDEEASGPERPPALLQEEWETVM

Kd: 1 nM
Substance: PTH (from UniProt P01270)
